Experimental data from US12013397B2, “Compositions and methods for determining cancer prognosis” (CASE WESTERN RESERVE UNIVERSITY, priority 2019, dated 2024).
Ends that are not written are not given here. Texas Red = Texas Red fluorescent dye

Assays:
[1] = target: T1, proteolytically cleaved extracellular fragments of PTPμ (Homo sapiens, UniProt P28827); experiment: SBK4-TR staining of human glioma tissue microarrays and slides; format: binding
T1 construct: from tissue; host or cells: formalin-fixed, paraffin-embedded human glioma patient tumor tissue (TMAs and slides)
T1 sequence (P28827 21-742 limits assumed): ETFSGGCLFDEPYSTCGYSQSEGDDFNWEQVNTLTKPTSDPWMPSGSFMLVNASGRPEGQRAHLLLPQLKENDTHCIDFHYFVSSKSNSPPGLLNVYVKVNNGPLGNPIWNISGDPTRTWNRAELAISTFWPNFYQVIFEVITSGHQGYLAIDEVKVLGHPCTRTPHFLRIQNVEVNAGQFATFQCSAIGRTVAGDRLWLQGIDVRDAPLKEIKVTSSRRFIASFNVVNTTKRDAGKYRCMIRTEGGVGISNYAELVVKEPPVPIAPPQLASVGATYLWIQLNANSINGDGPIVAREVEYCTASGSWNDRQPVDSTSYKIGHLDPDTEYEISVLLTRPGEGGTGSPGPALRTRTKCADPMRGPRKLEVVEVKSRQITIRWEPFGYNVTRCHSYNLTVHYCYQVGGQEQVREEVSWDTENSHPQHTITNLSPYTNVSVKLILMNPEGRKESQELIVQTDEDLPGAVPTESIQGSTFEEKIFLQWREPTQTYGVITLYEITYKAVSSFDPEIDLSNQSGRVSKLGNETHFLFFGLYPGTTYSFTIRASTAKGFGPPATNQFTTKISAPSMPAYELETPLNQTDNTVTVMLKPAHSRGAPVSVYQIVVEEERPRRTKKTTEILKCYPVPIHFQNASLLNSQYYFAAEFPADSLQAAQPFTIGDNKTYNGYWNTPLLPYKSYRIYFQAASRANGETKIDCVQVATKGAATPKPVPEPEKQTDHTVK
From the text: The SBK4 peptide used for immunohistochemistry was synthesized as described. The N-terminal glycine of SBK4 peptide was coupled to Texas Red (TR; Molecular Probes Inc, Eugene Oreg.) as described to make the fluorescent agent. Anti-IDH1 R132H Monoclonal Antibody clone H09 (American Research Products [Dianova GmbH], Waltham, Mass.) reacts specifically with the isocitrate dehydrogenase 1 (IDH1) R132H point mutation in tissue sections from formalin-fixed brain tumor specimens.
Patient tumor samples were obtained, formalin-fixed, and paraffin-embedded for analysis. Some samples were incorporated into tissue microarrays (TMAs) and some samples were placed on individual slides. Together, these TMAs and slides represented samples from 94 glioma patients (25 adolescent and young adult and 69 adult) with astrocytomas (n=12), oligodendroglioma (n=14), oligoastrocytoma (n=7), and GBM (n=61). Tissue staining with SBK4-TR has been described. […] Antibody binding was detected using MACH4 horseradish peroxidase (Biocare, Pacheco, Calif.) and diaminobenzidine was used as chromogenic substrate. […]
Tissue staining intensity for both PTPμ and IDH1 biomarkers was quantified by blinded observers. […] For IDH1, samples were scored as either positive for the mutation or negative as it is done clinically.

PTPμ biomarker = target: T2, PTPμ biomarker (Homo sapiens, UniProt P28827); experiment: SBK4-TR staining of human gynecologic cancer, normal and PDX tissue (Image J quantification); format: binding
T2 construct: from tissue; host or cells: formalin-fixed, paraffin-embedded human gynecologic cancer and normal tissue, and patient-derived xenograft sections
From the text: The SBK4 peptide used for tissue staining was synthesized as described. The N-terminal glycine of SBK4 peptide was coupled to Texas Red (TR; Molecular Probes Inc, Eugene, Oreg., USA) as described to make the fluorescent agent. Anti-p53 Monoclonal or Ki-67 antibodies were used to counterstain tissue sections, to indicate nuclear staining of p53 typical in high-grade serous ovarian carcinoma.
All samples used for this study were obtained from the Difeo and Avril labs. The Avril group generated tissue microarrays of several gynecologic cancers (TMAs) to facilitate screening a large number of patient biopsy tissues. The Difeo lab generated TMAs that included sections from patient derived xenografts (PDXs) matched to original patient tumor tissue sections. Additional individual biopsy and normal tissue samples were stained as individual slides. Together, these TMAs and slides represented samples from 73 patients (49 with gynecologic cancer, 22 sections from patients without cancer, and 2 patients with gynecologic cancer tissue and control tissue samples collected). The following gynecologic cancer types were represented in the dataset: endometrial clear cell carcinoma (n=3), endometrial endometrioid carcinoma (n=18), endometrial high-grade serous carcinoma (n =6), endometrial leiomyosarcoma (n=1), endometrial undifferentiated carcinoma (n=1), endometrial undifferentiated sarcoma (n=1), neuroendocrine tumor of the uterus (small cell) (n=1), ovarian carcinosarcoma (n=1), ovarian borderline serous (n=1), ovarian high-grade villoglandular carcinoma (n=1), ovarian high-grade serous carcinoma (n=16), ovarian endometrioid carcinoma (n=1).
Tissue staining with SBK4-TR was described. Positive controls (GBM) and negative controls (Epilepsy) were tested with the TMAs or individual slides. Tumor samples were obtained formalin-fixed and paraffin-embedded. Prior to staining, the TMAs or slides were deparaffinized and blocked with 2% goat serum in phosphate buffered saline (PBS) for 20 min at room temperature (RT). The samples were then incubated with SBK4-TR agent diluted in 2% goat serum in PBS at RT for 1 hr in the dark. Following a PBS rinse, the TMAs or slides were coverslipped with Vectashield Hard Set Mounting Medium (Vector Laboratories, Inc., Burlingame, Calif., USA) and imaged on a Hamamatsu Nanozoomer S60 slide scanner (Bridgewater, N.J., USA). Some samples were also stained for the IDH1 mutation. Tissue staining for both PTPμ was quantified using Image J.

GBM tissue = conditions: cited from earlier work

T2 sequence (P28827 21-1452): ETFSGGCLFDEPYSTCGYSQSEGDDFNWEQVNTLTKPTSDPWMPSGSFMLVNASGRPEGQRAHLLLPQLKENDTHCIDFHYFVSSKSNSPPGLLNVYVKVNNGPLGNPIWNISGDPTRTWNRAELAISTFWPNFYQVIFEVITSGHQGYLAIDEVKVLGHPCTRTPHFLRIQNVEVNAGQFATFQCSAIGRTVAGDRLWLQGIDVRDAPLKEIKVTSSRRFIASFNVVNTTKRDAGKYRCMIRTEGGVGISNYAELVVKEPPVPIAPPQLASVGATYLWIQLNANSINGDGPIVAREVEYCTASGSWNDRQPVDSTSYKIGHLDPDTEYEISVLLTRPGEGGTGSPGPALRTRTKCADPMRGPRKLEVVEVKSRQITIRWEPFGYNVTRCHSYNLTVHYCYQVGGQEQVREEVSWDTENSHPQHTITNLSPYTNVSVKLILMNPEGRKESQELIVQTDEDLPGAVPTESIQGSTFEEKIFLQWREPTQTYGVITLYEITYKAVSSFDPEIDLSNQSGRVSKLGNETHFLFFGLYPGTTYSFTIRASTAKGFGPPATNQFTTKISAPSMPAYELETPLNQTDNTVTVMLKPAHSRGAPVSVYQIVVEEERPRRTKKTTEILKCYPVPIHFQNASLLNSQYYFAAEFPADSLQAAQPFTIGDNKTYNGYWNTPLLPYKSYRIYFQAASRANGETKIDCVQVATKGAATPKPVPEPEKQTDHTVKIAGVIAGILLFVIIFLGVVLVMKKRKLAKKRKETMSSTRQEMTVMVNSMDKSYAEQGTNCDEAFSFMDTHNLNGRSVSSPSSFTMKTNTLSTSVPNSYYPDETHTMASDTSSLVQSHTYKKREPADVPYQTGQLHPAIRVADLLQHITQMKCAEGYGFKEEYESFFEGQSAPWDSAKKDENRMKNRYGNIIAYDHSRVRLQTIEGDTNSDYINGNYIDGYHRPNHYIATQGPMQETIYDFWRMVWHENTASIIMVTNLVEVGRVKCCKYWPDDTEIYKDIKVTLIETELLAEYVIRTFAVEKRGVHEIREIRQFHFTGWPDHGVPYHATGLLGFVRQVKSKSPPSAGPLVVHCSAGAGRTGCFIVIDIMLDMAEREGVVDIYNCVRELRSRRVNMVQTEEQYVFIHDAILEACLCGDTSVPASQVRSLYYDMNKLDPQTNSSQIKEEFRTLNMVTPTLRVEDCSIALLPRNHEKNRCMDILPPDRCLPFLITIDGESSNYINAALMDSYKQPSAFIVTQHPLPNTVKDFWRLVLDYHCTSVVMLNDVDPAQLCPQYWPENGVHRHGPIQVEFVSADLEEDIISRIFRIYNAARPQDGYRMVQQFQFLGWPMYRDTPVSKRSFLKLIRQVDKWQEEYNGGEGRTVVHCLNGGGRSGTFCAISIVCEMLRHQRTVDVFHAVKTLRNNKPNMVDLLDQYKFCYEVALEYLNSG

| Compound | PTPμ staining of the tumor samples ([1]; formalin-fixed paraffin-embedded glioma samples, fluorescent microscope) | labeling of glioma tissue by grade ([1]; low- and high-grade glioma tissue) | SBK4-TR staining of tumor tissue compared to control tissue (PTPμ biomarker; endometrial endometrioid cancer, high-grade serous endometrial carcinoma, endometrial clear cell carcinoma, small sample sizes) | staining observed within the TMAs (PTPμ biomarker; gynecologic cancer TMAs) | SBK4-TR labeling of tumor tissue compared to normal tissue (PTPμ biomarker; high-grade serous ovarian carcinoma vs normal ovary or normal fallopian tube) | SBK4-TR labeling of PDX tissue compared to original patient tumor tissue (PTPμ biomarker; matched patient tumor and PDX tumors, all samples) | correspondence of sites of high SBK4-TR labeling with p53 and Ki-67 staining (PTPμ biomarker; patient with multiple lesions) | labeling the dispersive GBM tumor border (GBM tissue; in vivo) | six month progression-free survival (GBM tissue; surgical resection of GBM) | extent of tumor resection (GBM tissue; surgical resection of GBM, versus 36% with white light alone) |
| --- | --- | --- | --- | --- | --- | --- | --- | --- | --- | --- |
| SBK4-TR: SBK4 peptide (SEQ ID NO: 7) conjugated to Texas Red ({Texas Red}-GIDVRDAPLKEIKVTSSR) | variable PTPμ staining | labels both low- and high-grade glioma tissue | did not have statistically significantly higher SBK4-TR staining than control tissue | varied amongst individual patients | statistically significantly higher staining | PDX tissue had higher levels of SBK4-TR labeling than the original patient tumor tissue | correspond to areas of high p53 and Ki-67 staining |  |  |  |
| NCC(=O)CCC(=O)O [5-ALA, 5-aminolevulinic acid] |  |  |  |  |  |  |  | less effective | improvement | 65% |
